Experiment [1] deals with human KLRB1 ECD (human). The experiment can be described thus: SPR. (In general: In SPR one partner is held on a chip, and binding of the other changes the refractive index at the surface.)
The target of experiment [2] is human KLRB1 ECD (human). The experiment can be described thus: SPR. The source holds these as a separate data set.
Experiment [3] concerns the target T1, cynomolgus KLRB1 on CHO-K1 (cynomolgus).
T1 chain: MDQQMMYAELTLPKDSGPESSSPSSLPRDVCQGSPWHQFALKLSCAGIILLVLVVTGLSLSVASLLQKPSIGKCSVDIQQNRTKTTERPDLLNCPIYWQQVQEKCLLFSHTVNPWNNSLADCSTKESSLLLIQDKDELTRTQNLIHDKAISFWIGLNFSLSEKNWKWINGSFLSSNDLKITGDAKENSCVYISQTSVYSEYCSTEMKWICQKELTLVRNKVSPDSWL
The experiment can be described thus: FACS. (A flow cytometer gives signals particle by particle.)

The target of experiment [4] is human KLRB1 on CHO-K1 (human). The experiment can be described thus: FACS.
Experiment [5] deals with human KLRB1 ECD (human). The experiment can be described thus: SPR. The source holds these as a separate data set.
Experiment [6] concerns the target human KLRB1 ECD (human). Put plainly: SPR. The source holds these as a separate data set.
For experiment [7], the target named is human KLRB1 ECD (human). Put plainly: ELISA.
Experiment [8] addresses T2, cynomolgus KLRB1 ECD (cynomolgus).
T2 chain: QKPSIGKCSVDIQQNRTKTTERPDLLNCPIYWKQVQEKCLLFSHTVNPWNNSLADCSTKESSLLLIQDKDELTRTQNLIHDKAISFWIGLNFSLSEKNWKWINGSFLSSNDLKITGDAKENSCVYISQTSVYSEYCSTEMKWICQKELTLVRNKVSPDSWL
The experiment can be described thus: ELISA.

The target of experiment [9] is human KLRB1 ECD (human). Put plainly: ELISA. The source holds these as a separate data set. (An ELISA detects its analyte on a solid surface through an enzyme-linked reagent.)
Experiment [10] deals with human KLRB1 ECD (human). Put plainly: SPR. This is another data set of the same source.
Experiment [11] addresses human KLRB1 on CHO-K1 (human). The experiment can be described thus: FACS. This is another data set of the same source.
In experiment [12] the target is T2, cynomolgus KLRB1 ECD. Put plainly: SPR.
Experiment [13] has as its target human KLRB1 on CHO-K1 (human). Put plainly: competition, CLEC2D, FACS.
Experiment [14] deals with T1, cynomolgus KLRB1 on CHO-K1. Put plainly: FACS.
The target in experiment [15] is human KLRB1 on CHO-K1 (human). The experiment can be described thus: FACS. The source holds these as a separate data set.
In experiment [16] the target is human KLRB1 ECD (human). Put plainly: ELISA. This is another data set of the same source.
The target in experiment [17] is human KLRB1 on CHO-K1 (human). The experiment can be described thus: competition, CLEC2D, FACS. The source holds these as a separate data set.
Experiment [18] has as its target T2, cynomolgus KLRB1 ECD. Put plainly: ELISA.
The target in experiment [19] is T1, cynomolgus KLRB1 on CHO-K1. The experiment can be described thus: FACS.
For experiment [20], the target named is human KLRB1 ECD (human). The experiment can be described thus: SPR. This is another data set of the same source.

Where two headings read alike, the source gives them in different places.

Chain of human KLRB1 on CHO-K1 (human) (chain, as listed by the source): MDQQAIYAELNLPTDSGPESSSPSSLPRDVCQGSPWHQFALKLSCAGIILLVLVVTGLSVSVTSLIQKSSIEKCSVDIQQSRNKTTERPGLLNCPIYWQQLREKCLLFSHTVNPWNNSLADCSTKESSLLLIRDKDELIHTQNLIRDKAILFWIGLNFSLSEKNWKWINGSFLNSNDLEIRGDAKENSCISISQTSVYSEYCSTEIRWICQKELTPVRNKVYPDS
Chain of human KLRB1 ECD (human) (chain, as listed by the source): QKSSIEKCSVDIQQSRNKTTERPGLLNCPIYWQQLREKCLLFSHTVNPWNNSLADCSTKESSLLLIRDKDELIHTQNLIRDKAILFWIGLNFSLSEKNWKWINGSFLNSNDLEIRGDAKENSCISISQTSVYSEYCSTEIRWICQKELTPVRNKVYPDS

B1: 22F10G3 chimeric (antibody, V domains shown)
VH: DVQLQESGPGQVKPSQSLSLTCTVTGYSLTSDFAWNWIRQFPGNRLEWMGDIRYSGSTDYNPSLKGRSSITRDTSKNQFFLQLNSVTTEDTATYYCARGGYYGYDEGYPMDYWGQGTSVTVSS
VL: NIVLTQSPASLAVSLGQRATISCRASESVDVYGNSFMHWYQQKTGQPPKLLIYLAFNLKSGVPARFSGSGSRTDFTLTIDPVEADDAATYYCQQNNEDPFTFGSGTKLEIK
For B1, the Kd (as a rule, the constant that tells how readily two partners part at equilibrium) with human KLRB1 ECD [1] is 0.0665 nM; with human KLRB1 ECD [2], 0.0429 nM.

B2: 50A8F2 chimeric (antibody, V domains shown)
VH: QIQLQQSGPELVKPGASVKISCKASGYTFIDYYINWVKQKPGQGLEWIGWIFPGSGHTKYNENFKGKATLTVDTSSSTAYMHLSSLTSEDTAVYFCARGDRSALGYFDYWGQGSTLTVSS
VL: QIVLTQSPAIMSASLGERVTMTCTASSSVSSTYLHWYQQKPGSSPKLWIYSTSNLASGVPARFSGSGSGTSYSLTFSSMEAEDAATYYCHQYHRSPLTFGAGTKLELK
Regarding B2, the binding result in experiment [3] was “no binding”. For the same molecule, the concentration for a half-maximal effect (EC50) (as a rule, the concentration needed to bring the measured effect to its halfway point) amounted to 5.87 nM with human KLRB1 on CHO-K1 [4] and 0.0252 nM with human KLRB1 ECD [7]. Moreover, the figures for the dissociation constant Kd with human KLRB1 ECD [5] and with human KLRB1 ECD [6] were 0.229 nM and 0.0521 nM, respectively.

B3: 47A5H2 chimeric (antibody, V domains shown)
VH: QVQLQQPGAELVRPGASVKLSCKGSGYSFTGYWMHWVKQRPGQGLEWIGMIHPSDSETRLNQKFKDKATLTVDKSSSTTYMQLSSPTSEDSAVYYCASEGLRRGSFAYWGQGTLVTVSA
VL: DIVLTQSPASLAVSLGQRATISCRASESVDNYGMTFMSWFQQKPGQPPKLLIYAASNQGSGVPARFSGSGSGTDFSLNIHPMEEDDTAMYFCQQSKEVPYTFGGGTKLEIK
For B3, the EC50 with cynomolgus KLRB1 ECD [8] was determined as 0.0182 nM; with human KLRB1 ECD [9], 0.0221 nM; in the experiment with human KLRB1 on CHO-K1 [11], 1.84 nM; in experiment [14], 2.59 nM. In addition, the Kd in the experiment with human KLRB1 ECD [6] was 0.306 nM; in the experiment with human KLRB1 ECD [10] it was 0.712 nM; with cynomolgus KLRB1 ECD [12], 6.61 nM. The 50% inhibitory concentration (IC50) (as a rule, the concentration that inhibits the measured activity by half) in the experiment with human KLRB1 on CHO-K1 [13] amounted to 2.54 nM.

B4: Hu50A8F2-01 (antibody, V domains shown)
VH: QVQLVQSGAEVKKPGASVKVSCKASGYTFIDYYINWVRQAPGQGLEWMGWIFPGSGHTKYNENFKGRVTMTRDTSTSTVYMELSSLRSEDTAVYYCARGDRSALGYFDYWGQGTTVTVSS
VL: DIQMTQSPSSLSASVGDRVTITCTASSSVSSTYLHWYQQKPGKAPKLLIYSTSNLASGVPSRFSGSGSGTDFTLTISSLQPEDFATYYCHQYHRSPLTFGQGTKLEIK
Take B4: in [3], the binding result is “no binding”. The results for the 50% effective concentration (EC50) with human KLRB1 on CHO-K1 [4] and in the experiment with human KLRB1 ECD [7] were 5.54 nM and 0.0197 nM, respectively. In the experiment with human KLRB1 ECD [5], the affinity, expressed as Kd, was 1.55 nM.

B5: Hu50A8F2-03 (antibody, V domains shown)
VH: QVQLVQSGAEVKKPGASVKVSCKASGYTFIDYYINWVRQAPGQGLEWMGWIFPGSGHTKYNENFKGRVTMTRDTSTSTVYMELSSLRSEDTAVYYCARGDRSALGYFDYWGQGTTVTVSS
VL: DIQLTQSPSSLSASVGDRVTITCTASSSVSSTYLHWYQQKPGKSPKLLIYSTSNLASGVPSRFSGSGSGTDYTLTISSLQPEDFATYYCHQYHRSPLTFGQGTKLEIK
With B5, the binding result in experiment [3] is listed as “no binding”. Also, the EC50 with human KLRB1 on CHO-K1 [4] was 5.17 nM; in the experiment with human KLRB1 ECD [7], 0.0113 nM. Also, in the experiment with human KLRB1 ECD [5], the Kd came out at 0.665 nM.

B6: Hu50A8F2-06 (antibody, V domains shown)
VH: QVQLVQSGAEVKKPGASVKVSCKASGYTFIDYYINWVRQAPGQGLEWMGWIFPGSGHTKYNENFKGKVTMTVDTSTSTVYMELSSLRSEDTAVYYCARGDRSALGYFDYWGQGTTVTVSS
VL: DIQMTQSPSSLSASVGDRVTITCTASSSVSSTYLHWYQQKPGKAPKLLIYSTSNLASGVPSRFSGSGSGTDYTLTISSLQPEDFATYYCHQYHRSPLTFGQGTKLEIK
Turning to B6, the binding result in experiment [3] is “no binding”. Further, the 50% effective concentration (EC50) was determined as 5.44 nM in the experiment with human KLRB1 on CHO-K1 [4] and 0.0236 nM in the experiment with human KLRB1 ECD [7]. In the experiment with human KLRB1 ECD [5], the affinity, expressed as Kd, was 0.828 nM.

B7: Hu47A5H2-07 (antibody, V domains shown)
VH: QVQLVQSGAEVKKPGASVKVSCKASGYSFTGYWMHWVRQAPGQGLEWMGMIHPSDSETRLNQKFKDRVTMTVDTSTSTVYMELSSLRSEDTAVYYCASEGLRRGSFAYWGQGTLVTVSS
VL: DIVLTQSPDSLAVSLGERATINCRASESVDNYGMTFMSWFQQKPGQPPKLLIYAASNQGSGVPDRFSGSGSGTDFTLTISSLQAEDVAVYYCQQSKEVPYTFGQGTKLEIK
On to B7, for which the EC50 amounted to 0.0108 nM with cynomolgus KLRB1 ECD [8], 0.0134 nM with human KLRB1 ECD [9], 2.35 nM with human KLRB1 on CHO-K1 [11] and 10.8 nM in experiment [14]. For the same molecule, the dissociation constant Kd with human KLRB1 ECD [10] is 1.04 nM; with cynomolgus KLRB1 ECD [12] it was 3.25 nM. The concentration for half-maximal inhibition (IC50) with human KLRB1 on CHO-K1 [13] came out at 2.32 nM.

B8: Hu47A5H2-11 (antibody, V domains shown)
VH: QVQLVQSGAEVKKPGASVKVSCKASGYSFTGYWMHWVRQAPGQGLEWMGMIHPSDSETRLNQKFKDRVTMTVDKSTSTVYMELSSLRSEDTAVYYCASEGLRRGSFAYWGQGTLVTVSS
VL: DIVLTQSPDSLAVSLGERATINCRASESVDNYGMTFMSWFQQKPGQPPKLLIYAASNQGSGVPDRFSGSGSGTDFTLTISSLQAEDVAVYYCQQSKEVPYTFGQGTKLEIK
With B8, the EC50 came to 3.01 nM in the experiment with human KLRB1 on CHO-K1 [15]; 0.016 nM with human KLRB1 ECD [16]; 0.01 nM with cynomolgus KLRB1 ECD [8]; 0.024 nM with cynomolgus KLRB1 ECD [18]; 0.0238 nM in the experiment with human KLRB1 ECD [9]; 1.6 nM with human KLRB1 on CHO-K1 [11]. In addition, the 50% effective concentration (EC50) in [14] was ~1.77 nM; in [19], 14.9 nM. Besides, the 50% inhibitory concentration (IC50) with human KLRB1 on CHO-K1 [17] worked out at 3.61 nM; in the experiment with human KLRB1 on CHO-K1 [13], 1.97 nM. Moreover, the Kd was 0.639 nM with human KLRB1 ECD [10] and 1.94 nM with cynomolgus KLRB1 ECD [12].

B9: Hu22F10G3-3.4 (antibody, V domains shown)
VH: QVQLQESGPGLVKPSQTLSLTCTVSGYSLTSDFAWNWIRQHPGKGLEWMGDIRYSGSTDYNPSLKGRSTISRDTSKNQFSLKLSSVTAADTAVYYCARGGYYGYDEGYPMDYWGQGTLVTVSS
VL: DIVMTQSPDSLAVSLGERATISCRASESVDVYGNSFMHWYQQKPGQPPKLLIYLAFNLKSGVPARFSGSGSGTDFTLTISSLQAEDVATYYCQQNNEDPFTFGQGTKLEIK
As for B9, the Kd with human KLRB1 ECD [1] came out at 0.12 nM; with human KLRB1 ECD [2], 0.129 nM.

B10: Hu22F10G3-2.3-NA (antibody, V domains shown)
VH: QVQLQESGPGLVKPSQTLSLTCTVSGYSLTSDFAWNWIRQHPGKGLEWMGDIRYSGSTDYNPSLKGRVTISRDTSKNQFSLKLSSVTAADTAVYYCARGGYYGYDEGYPMDYWGQGTLVTVSS
VL: DIVMTQSPDSLAVSLGERATISCRASESVDVYGNAFMHWYQQKPGQPPKLLIYLAFNLKSGVPDRFSGSGSGTDFTLTISSLQAEDVAVYYCQQNNEDPFTFGQGTKLEIK
B10: binding in the experiment with human KLRB1 ECD [20] was put at a Kd of 0.14 nM. This lies in the sub-nanomolar range.

B11: Hu22F10G3-2.3 (antibody, V domains shown)
VH: QVQLQESGPGLVKPSQTLSLTCTVSGYSLTSDFAWNWIRQHPGKGLEWMGDIRYSGSTDYNPSLKGRVTISRDTSKNQFSLKLSSVTAADTAVYYCARGGYYGYDEGYPMDYWGQGTLVTVSS
VL: DIVMTQSPDSLAVSLGERATISCRASESVDVYGNSFMHWYQQKPGQPPKLLIYLAFNLKSGVPDRFSGSGSGTDFTLTISSLQAEDVAVYYCQQNNEDPFTFGQGTKLEIK
For B11, the Kd came to 0.0966 nM in the experiment with human KLRB1 ECD [1], 0.0688 nM in the experiment with human KLRB1 ECD [20] and 0.103 nM with human KLRB1 ECD [2].

B12: Hu22F10G3-1.1 (antibody, V domains shown)
VH: QVQLQESGPGLVKPSQTLSLTCTVSGYSLTSDFAWNWIRQHPGKGLEWIGDIRYSGSTDYNPSLKGRVTISVDTSKNQFSLKLSSVTAADTAVYYCARGGYYGYDEGYPMDYWGQGTLVTVSS
VL: DIVMTQSPDSLAVSLGERATINCRASESVDVYGNSFMHWYQQKPGQPPKLLIYLAFNLKSGVPDRFSGSGSGTDFTLTISSLQAEDVAVYYCQQNNEDPFTFGQGTKLEIK
As for B12, the Kd in the experiment with human KLRB1 ECD [1] came to 0.124 nM; with human KLRB1 ECD [2], 0.134 nM.

B13: Hu22F10G3-2.3-QS (antibody, V domains shown)
VH: QVQLQESGPGLVKPSQTLSLTCTVSGYSLTSDFAWNWIRQHPGKGLEWMGDIRYSGSTDYNPSLKGRVTISRDTSKNQFSLKLSSVTAADTAVYYCARGGYYGYDEGYPMDYWGQGTLVTVSS
VL: DIVMTQSPDSLAVSLGERATISCRASESVDVYGQSFMHWYQQKPGQPPKLLIYLAFNLKSGVPDRFSGSGSGTDFTLTISSLQAEDVAVYYCQQNNEDPFTFGQGTKLEIK
With B13, the affinity with human KLRB1 ECD [20], expressed as Kd, was 0.653 nM.

Values taken from patent publication US20260356955 (published 2026).
